Broadly, the Tm is the temperature at which the thermal transition is half complete.

This is an account of results in FireProtDB (doi:10.1021/bi00015a036).

B1: Barstar, P11540 (parent)
chain: MKKAVINGEQIRSISDLHQTLKKELALPEYYGENLDALWDCLTGWVEYPLVLEWRQFEQSKQLTENGAESVLQVFREAKAEGCDITIILS

The first data set covers variants of B1. The following applies: Bacillus amyloliquefaciens; pH 7; Thermal; DSC; PIPES 50 mM; reversible: yes (~80%); structure 1BTA; whole UniProt chain shown.
Turning to MKKAVINGEQIRSISDLHQTLKKELALPEYYGENLDALWDALTGWVEYPLVLEWRQFEQSKQLTENGAESVLQVFREAKAEGADITIILS [C41A C83A], the Tm was 74 °C and the “unfolding enthalpy (calorimetric)” value was found to be 63.4 kcal/mol.

Still in this data set, the particulars now being: Bacillus amyloliquefaciens; pH 10; Thermal; DSC; CAPS 50 mM; reversible: yes (~80%); structure 1BTA; whole UniProt chain shown.
Consider MKKAVINGEQIRSISDLHQTLKKELALPEYYGENLDALWDALTGWVEYPLVLEWRQFEQSKQLTENGAESVLQVFREAKAEGADITIILS [C41A C83A], for which the Tm was 68.6 °C and the “unfolding enthalpy (calorimetric)” value was 58.6 kcal/mol.

The same data set, now with this note: Bacillus amyloliquefaciens; pH 10.3; Thermal; DSC; CAPS 50 mM; reversible: yes (~80%); structure 1BTA; whole UniProt chain shown.
Regarding MKKAVINGEQIRSISDLHQTLKKELALPEYYGENLDALWDALTGWVEYPLVLEWRQFEQSKQLTENGAESVLQVFREAKAEGADITIILS [C41A C83A], the Tm came to 67 °C and the “unfolding enthalpy (calorimetric)” value was 57.4 kcal/mol.

The data set is the same for the next values; noted with them: Bacillus amyloliquefaciens; pH 10.5; Thermal; DSC; CAPS 50 mM; reversible: yes (~80%); structure 1BTA; whole UniProt chain shown.
For MKKAVINGEQIRSISDLHQTLKKELALPEYYGENLDALWDALTGWVEYPLVLEWRQFEQSKQLTENGAESVLQVFREAKAEGADITIILS [C41A C83A], the Tm was 65.7 °C and the “unfolding enthalpy (calorimetric)” value is 56.2 kcal/mol.
